Reference: patent US20210198347A1 (Chugai, published 2021)

T1: Native proenzyme human C1s (Comptech A103) (human, UniProt P09871 16-688)
T1 construct: mature; Bought native protein; also called native human C1s Proenzyme; native human C1s proenzyme protein (CompTech)
T1 sequence (looked up): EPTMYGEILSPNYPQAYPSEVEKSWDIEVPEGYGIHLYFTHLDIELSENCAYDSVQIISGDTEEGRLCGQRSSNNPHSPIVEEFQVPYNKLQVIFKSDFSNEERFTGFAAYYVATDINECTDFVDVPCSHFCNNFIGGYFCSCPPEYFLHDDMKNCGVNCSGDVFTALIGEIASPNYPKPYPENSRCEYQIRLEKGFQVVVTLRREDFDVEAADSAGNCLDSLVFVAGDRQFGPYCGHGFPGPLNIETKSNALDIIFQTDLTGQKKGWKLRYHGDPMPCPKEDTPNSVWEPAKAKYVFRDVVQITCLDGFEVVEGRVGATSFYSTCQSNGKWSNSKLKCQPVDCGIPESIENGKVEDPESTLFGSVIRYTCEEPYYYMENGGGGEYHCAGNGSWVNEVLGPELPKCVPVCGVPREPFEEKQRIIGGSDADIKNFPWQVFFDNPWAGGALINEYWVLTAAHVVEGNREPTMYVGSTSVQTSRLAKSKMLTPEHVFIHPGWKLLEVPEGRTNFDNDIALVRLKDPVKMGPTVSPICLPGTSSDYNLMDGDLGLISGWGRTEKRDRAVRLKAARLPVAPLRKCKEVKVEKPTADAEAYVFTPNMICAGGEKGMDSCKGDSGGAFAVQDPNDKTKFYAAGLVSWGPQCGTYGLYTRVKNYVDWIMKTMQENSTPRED

B1: COS0499ee-SG1148 (antibody, human IgG1, kappa, V domains shown)
VH: QSLEESGGRLVTPGTPLTLTCTASGFSLSNYNMAWVRQAPGKGLEWIGIIETTTNTYYARWARGRFTISKTSSTTVDLQIASPTTEDTATYFCGRRVSNSHDLWGPGTLVTVSS
VL: AYDMTQTPASVSAAVGGTVTINCQASQTIGGWCAWYQQKPGQPPKLLIYKASTLASGVSSRFKGSGSGTEFALTISDLECDDAATYYCQHGYYTSSTIENTFGGGTKVEIKR
notes: also called COS499; COS499ee(-SG1148)
B2: COS0631gg-SG1148 (antibody, human IgG1, kappa, V domains shown)
VH: QSVEESGGRLVTPGTPLTLTCTVSGFSLSRYSMGWVRQAPGKGLEWIGIIYADGGAYYASWAKGRFTISKTSTTMDLKVTSPTTEDTATYFCARGQFINSNEFFNPWGPGTLVTVSS
VL: QVLTQTASSVSAVVGGTVTINCQASQSLHNNKNLAWYQQKPGQPPRLLIYYASTLASGVSSRFKGSGSGTQFTLTISDLECDDAATYYCAGEFSCSNGDCNAFGGGTKVEIKR
B3: COS0637cc-SG1148 (antibody, human IgG1, kappa, V domains shown)
VH: QSLEESGGRLVTPGTPLTLTCTASGFSLSAYAMNWVRQAPGKGLEWIGLIYGSGSTFYASWAKGRFTISKTSTTVDLKMTSLTTEDTATYFCARGRSVNYNSDFKLWGPGTLVTVSS
VL: QVLTQTPSSVSAAVGGTVTINCQASQSLHDKKNLAWYQHKPGQRPNLLIYGASTLESGVPSRFKGSGSGTEYTLTISDLECDDAAAYYCQGEFSCSSADCNTFGGGTKVEIKR
B4: COS0547gg-SG1148 (antibody, human IgG1, kappa, V domains shown)
VH: QSLEESGGRLVTPGTPLTLTCTASGFSLSSYHMDWVRQAPGKGLEWIGIITYTGDTYYATWAKGRFTISKTSSTTVDLKMASLTTEDTATYFCARRQYDAYNVWGPGTLVTVSS
VL: AYDMTQTPASVEVAVGGTVTIKCQASQSINNYLAWYQQKPGQPPKLLIYYASTLASGVPSRFKGSRSGTEFTLTISGVECADAATYYCQHGYYTSSNIDSVFGGGTKVEIKR
B5: COS0448oo-SG1148 (antibody, human IgG1, kappa, V domains shown)
VH: QSVEESGGRLVTPGTPLTLTCTVSGFSLSNYGMIWVRQAPGEGLEYIGFVSGSGSAYYANWVKGRFTISKTSTTVDLKMTSLTTEDTATYFCARGAYNTDSYSYSLYYGMDLWGPGTLVTVSS
VL: QIVMTQTPASVEVAVGGTVTIKCQASQSIYSYLSWYQQKPGQPPKLLIYGASTLASGVPSRFKGSRSGTEFTLTISDLECADAATYYCQSNYATTTTYGTFGGGTKVEIKR
notes: Rabbit B-cell derived variable regions; also called COS448; COS44800(-SG1148)

What follows are binders tested against T1, Native proenzyme human C1s (Comptech …) (assay: SPR (BIACORE T200, 37 degrees C, pH 7.4), antibody captured by protein A/G, C1s 50 nM).
Description: The binding specificities of the six C1s CUB1-EGF-CUB2 binders were determined at 37 degrees C. using BIACORE® T200 instrument (GE Healthcare). Recombinant Protein A/G (Pierce) was immobilized onto all flow cells of a CM4 sensor chip using an amine coupling kit (GE Healthcare). Antibodies and analytes were prepared in 7(+) buffer (20 mM ACES, 150 mM NaCl, 1.2 mM CaCl₂, 0.05% Tween 20, 0.005% NaN₃, pH 7.4). Each antibody was captured onto the sensor surface by protein A/G. Antibody capture levels were aimed at 100 resonance unit (RU). Native proenzyme human C1s (Comptech A103) (at 50 nM as a monomer) or recombinant human C1s CCP1-CCP2-SP-His (at 100 nM as a monomer) was injected, followed by dissociation. Sensor surface was regenerated each cycle with 10 mM Glycine-HCl pH 1.5. The six C1s CUB1-EGF-CUB2 binders bound to the native proenzyme human C1s, but not recombinant human C1s CCP1-CCP2-SP-His, which is a truncated protein lacking the CUB1-EGF-CUB2 domain.

| Binder | binding result |
| --- | --- |
| B1 | binds |
| B2 | binds |
| B3 | binds |
| B4 | binds |
| B5 | binds |
